Substrate in the data set “Hint1 activity assay”: COc1nc(N)nc2c1ncn2[C@@H]1O[C@H](COP(=O)(O)N[C@@H](C)C(=O)O)[C@@H](O)[C@@]1(C)F
The data set can be described thus: Hint1 activity assay. Type of data set: biochemical. Particulars: other: Hint1, 37 °C, pH 7.2.

Substrate in data set [1]: Nc1nc2c(ncn2[C@@H]2O[C@H](COP(=O)(O)O)[C@@H](O)[C@H]2O)c(=O)[nH]1
The data set can be described thus: hGUK1-mediated phosphorylation, coupled spectrophotometric assay. In kind it is biochemical, human. The conditions noted are these: other: hGUK1, 37°C.

B1: Hint1 (Homo sapiens) (protein)
chain: MADEIAKAQVARPGGDTIFGKIIRKEIPAKIIFEDDRCLAFHDISPQAPTHFLVIPKKHISQISVAEDDDESLLGHLMIVGKKCAADLGLNKGYRMVVNEGSDGGQSVYHVHLHVLGGRQMHWPPG
The Km is the concentration of substrate that gives half-maximal velocity. For orientation: kcat means the number of substrate molecules converted per active site and unit of time at saturation. B1: in “Hint1 activity assay”, the Km was 445 ± 182 µM and the catalytic constant (kcat) was 3.44 min⁻¹.

B2: Human guanylate kinase (hGUK1) (Homo sapiens) (protein)
chain: MSGPRPVVLSGPSGAGKSTLLKRLLQEHSGIFGFSVSHTTRNPRPGEENGKDYYFVTREVMQRDIAAGDFIEHAEFSGNLYGTSKVAVQAVQAMNRICVLDVDLQGVRNIKATDLRPIYISVQPPSLHVLEQRLRQRNTETEESLVKRLAAAQADMESSKEPGLFDVVIINDSLDQAYAELKEALSEEIKKAQRTGA
The kcat/Km is the second-order rate constant that governs catalysis at low substrate concentration. On to B2, for which, in data set [1], the Michaelis constant (Km) worked out at 19.1 ± 4.5 µM, the turnover number (kcat) is 74.7 ± 17.6 s⁻¹ and the kcat/Km is 3.9e+06 M⁻¹ s⁻¹.

The values are drawn from article PMC3135787.
